In assay [1] the target is T1, beta-Catenin (full-length, Uniprot ID P35222) (Homo sapiens (Human), UniProt P35222 1-781).
T1 construct: also called bCat; B-Catenin
T1 sequence: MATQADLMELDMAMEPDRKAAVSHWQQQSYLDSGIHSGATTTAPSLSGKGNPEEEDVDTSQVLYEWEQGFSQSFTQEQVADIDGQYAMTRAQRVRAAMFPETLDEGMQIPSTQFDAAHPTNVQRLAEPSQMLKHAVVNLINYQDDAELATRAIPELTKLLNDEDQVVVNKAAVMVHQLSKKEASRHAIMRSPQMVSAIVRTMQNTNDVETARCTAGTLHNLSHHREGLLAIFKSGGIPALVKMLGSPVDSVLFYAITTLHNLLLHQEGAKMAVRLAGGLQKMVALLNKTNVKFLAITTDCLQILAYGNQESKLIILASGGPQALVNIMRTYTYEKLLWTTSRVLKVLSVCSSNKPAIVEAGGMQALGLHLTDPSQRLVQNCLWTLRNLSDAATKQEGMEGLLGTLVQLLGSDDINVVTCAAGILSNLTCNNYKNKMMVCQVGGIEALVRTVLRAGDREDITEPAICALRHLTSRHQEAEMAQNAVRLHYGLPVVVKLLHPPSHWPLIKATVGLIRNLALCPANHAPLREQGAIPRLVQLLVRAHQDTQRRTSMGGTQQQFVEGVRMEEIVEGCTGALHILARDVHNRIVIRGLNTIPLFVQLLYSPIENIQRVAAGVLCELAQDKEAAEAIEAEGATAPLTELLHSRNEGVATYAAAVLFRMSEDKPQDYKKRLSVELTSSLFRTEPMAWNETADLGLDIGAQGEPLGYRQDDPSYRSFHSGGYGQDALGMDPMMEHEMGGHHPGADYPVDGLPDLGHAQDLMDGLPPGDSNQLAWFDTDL
Briefly: fluorescence polarization competition: peptide titrated against 10 nM full-length beta-catenin + 10 nM 5FAM-labeled TCF4 residues 10-53 probe. The method, then:
(§1) The plate was incubated protected from light for 60 minutes at 20° C. prior to read. Reads were performed on a CLARIOstar plate reader (BMG Labtech) in duplicate, and data were fitted to a 1:1 binding model with hill slope using an in-house script. All provided concentrations are final concentrations.
(In fluorescence polarisation assays a small probe gives low polarisation when free and higher when bound to something large.)

The target of assay [2] is T2, full-length beta-Catenin (Uniprot ID P35222) (Homo sapiens (Human), UniProt P35222 2-781).
T2 construct: also called B-Catenin; bCat
T2 sequence: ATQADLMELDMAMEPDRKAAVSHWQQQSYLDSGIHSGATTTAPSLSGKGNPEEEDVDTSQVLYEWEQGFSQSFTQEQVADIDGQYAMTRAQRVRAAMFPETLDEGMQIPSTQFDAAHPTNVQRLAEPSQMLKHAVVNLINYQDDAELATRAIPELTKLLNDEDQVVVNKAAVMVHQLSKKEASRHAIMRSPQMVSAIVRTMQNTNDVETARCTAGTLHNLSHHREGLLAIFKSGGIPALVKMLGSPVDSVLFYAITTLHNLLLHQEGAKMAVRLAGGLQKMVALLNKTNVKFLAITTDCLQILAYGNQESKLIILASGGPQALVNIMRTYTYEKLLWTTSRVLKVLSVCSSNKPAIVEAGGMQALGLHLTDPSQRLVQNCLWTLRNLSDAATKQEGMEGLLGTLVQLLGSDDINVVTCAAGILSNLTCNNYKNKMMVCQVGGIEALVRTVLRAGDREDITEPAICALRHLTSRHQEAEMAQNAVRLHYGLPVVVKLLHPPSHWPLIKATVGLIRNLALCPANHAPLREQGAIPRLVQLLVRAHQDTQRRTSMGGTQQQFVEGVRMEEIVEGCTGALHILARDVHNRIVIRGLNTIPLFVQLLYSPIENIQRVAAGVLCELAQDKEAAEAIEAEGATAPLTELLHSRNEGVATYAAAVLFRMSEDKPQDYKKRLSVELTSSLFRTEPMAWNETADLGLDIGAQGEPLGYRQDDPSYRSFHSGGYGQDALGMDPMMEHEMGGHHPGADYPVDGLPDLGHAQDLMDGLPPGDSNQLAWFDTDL
Briefly: fluorescence polarization competition; 5FAM-TCF4(10-53) probe with full-length beta-catenin. How it is done:
as §1

In assay [3] the target is T2, full-length beta-Catenin (Uniprot ID …). Briefly: Alphascreen competition; biotin-TCF4(10-53) probe with full-length beta-catenin. How it is done:
(§2) Equal volume of the titrated peptide was added to the plate and incubated for 15 minutes at 20° C. Then 4 uL of donor and 4 uL acceptor beads at 10 ug/mL were added to the plate, for a 16 uL reaction pool and protected from light for 60 minutes at 20° C. prior to read. Reads were performed on a CLARIOstar plate reader (BMG Labtech) in duplicate, and data were fitted to a 1:1 binding model with hill slope using an in-house script. All provided concentrations are final concentrations.
On the technique in general: Bead proximity is the source of the signal in Alpha formats.

The target in assay [4] is T3, full-length beta-Catenin (Uniprot ID P35222) (Homo sapiens (Human), UniProt P35222 2-781).
T3 construct: Used full-length in both the FP and the AlphaScreen assay; also called B-Catenin; bCat
T3 sequence: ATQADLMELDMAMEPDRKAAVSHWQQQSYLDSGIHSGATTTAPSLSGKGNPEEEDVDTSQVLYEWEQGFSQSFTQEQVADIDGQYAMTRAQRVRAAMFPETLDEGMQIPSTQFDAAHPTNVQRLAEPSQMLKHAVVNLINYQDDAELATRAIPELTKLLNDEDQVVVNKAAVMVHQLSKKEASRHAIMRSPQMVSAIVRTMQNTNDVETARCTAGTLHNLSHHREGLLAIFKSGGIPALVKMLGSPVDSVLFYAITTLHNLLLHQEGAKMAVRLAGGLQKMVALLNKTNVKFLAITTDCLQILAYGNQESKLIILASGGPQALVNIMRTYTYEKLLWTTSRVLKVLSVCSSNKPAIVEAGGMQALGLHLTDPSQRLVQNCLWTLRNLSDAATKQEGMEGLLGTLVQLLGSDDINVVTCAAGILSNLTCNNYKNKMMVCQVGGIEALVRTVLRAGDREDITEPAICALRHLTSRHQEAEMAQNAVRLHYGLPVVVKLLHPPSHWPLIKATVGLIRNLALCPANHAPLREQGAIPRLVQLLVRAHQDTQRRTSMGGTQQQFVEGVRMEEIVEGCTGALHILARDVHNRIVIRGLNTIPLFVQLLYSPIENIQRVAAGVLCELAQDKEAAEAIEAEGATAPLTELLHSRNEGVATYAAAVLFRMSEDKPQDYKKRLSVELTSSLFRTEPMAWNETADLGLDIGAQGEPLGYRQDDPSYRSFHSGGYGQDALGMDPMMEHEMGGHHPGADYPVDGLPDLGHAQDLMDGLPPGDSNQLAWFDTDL
Description: fluorescence polarization competition; full-length beta-catenin, 5FAM-TCF4(10-53) probe. The method, then: as §1

Assay [5] deals with T3, full-length beta-Catenin (Uniprot ID …). Briefly: AlphaScreen competition; full-length beta-catenin, biotin-TCF4(10-53) probe. The method, then:
as §2

Assay [6] addresses T4, full-length beta-Catenin (Uniprot ID P35222) (Homo sapiens (Human), UniProt P35222 2-781).
T4 construct: The AlphaScreen assay used a Histidine (Nickel Chelate) detection kit, so a His tag is likely, but no tag is described; also called B-Catenin; bCat
T4 sequence: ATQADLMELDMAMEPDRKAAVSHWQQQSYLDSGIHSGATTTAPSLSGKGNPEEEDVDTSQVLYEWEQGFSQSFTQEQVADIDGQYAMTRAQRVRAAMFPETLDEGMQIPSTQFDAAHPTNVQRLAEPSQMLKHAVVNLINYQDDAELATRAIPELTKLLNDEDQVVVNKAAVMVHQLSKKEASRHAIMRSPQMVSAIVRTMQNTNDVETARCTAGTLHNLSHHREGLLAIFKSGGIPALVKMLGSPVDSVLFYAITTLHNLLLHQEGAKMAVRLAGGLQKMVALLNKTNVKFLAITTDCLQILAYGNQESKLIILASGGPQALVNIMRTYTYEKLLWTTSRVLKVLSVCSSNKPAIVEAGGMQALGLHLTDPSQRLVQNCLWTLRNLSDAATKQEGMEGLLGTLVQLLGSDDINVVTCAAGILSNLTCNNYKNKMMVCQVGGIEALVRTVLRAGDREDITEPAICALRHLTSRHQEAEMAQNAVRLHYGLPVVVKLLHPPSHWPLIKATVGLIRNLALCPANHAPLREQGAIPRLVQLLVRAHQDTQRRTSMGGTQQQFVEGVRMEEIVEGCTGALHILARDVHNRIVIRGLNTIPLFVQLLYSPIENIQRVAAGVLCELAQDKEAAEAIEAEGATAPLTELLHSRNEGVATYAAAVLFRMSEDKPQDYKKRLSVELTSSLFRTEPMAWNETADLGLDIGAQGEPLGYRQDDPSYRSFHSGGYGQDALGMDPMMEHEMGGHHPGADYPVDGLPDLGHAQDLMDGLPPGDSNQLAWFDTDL
Briefly: AlphaScreen competition: full-length beta-catenin + biotin-TCF4(10-53) probe, peptide titrated. The method, then:
as §2

Assay [7] addresses T4, full-length beta-Catenin (Uniprot ID …). Description: fluorescence polarization competition: full-length beta-catenin + 5FAM-TCF4(10-53) probe, peptide titrated. How it is done: as §1

Starred links: 1 amine or outer side, 2 acyl side, 3 side chain; linkers in the order of their positions; H or OH if unused. Positions of bridges follow the written chain, without caps; N, C: chain ends. Non-standard residues stand in square brackets, D forms with d. Primed or numbered codes have the meaning given here. SeN″ = (S)-5-(((allyloxy)carbonyl)(methyl)amino)-2-amino-2-methylpentanoic acid (stapling residue), C=CCOC(=O)N(C)CCC[C@](C)(N[*:1])C(=O)[*:2]; B5(4) = 2,2-bis(4-pentenyl)glycine = 2-amino-2-(pent-4-en-1-yl)hept-6-enoic acid (stitching residue), C=CCCCC(CCCC=C)(N[*:1])C(=O)[*:2]; B5(21) = 2-amino-2-(pent-4-en-1-yl)hept-6-enoic acid, bis(4-pentenyl)glycine (stitching residue), C=CCCCC(CCCC=C)(N[*:1])C(=O)[*:2]; SeN = (S)-5-(((allyloxy)carbonyl)(methyl)amino)-2-amino-2-methylpentanoic acid, C=CCOC(=O)N(C)CCC[C@](C)(N[*:1])C(=O)[*:2]; B5(28) = 2,2-bis(4-pentenyl)glycine, C=CCCCC(CCCC=C)(N[*:1])C(=O)[*:2]; Phe(3-F) = N[C@@H](Cc1cccc(F)c1)C(=O)O; Phe(4-F) = N[C@@H](Cc1ccc(F)cc1)C(=O)O; αAllylPro = C=CC[C@@]1(C(=O)O)CCCN1; S8 = C=CCCCCCC[C@](C)(N)C(=O)O; Aib = CC(C)(N)C(=O)O

The results in this text go back to patent US20240116985A1 (published 2024).

B1: I-264: Ac-PL3-Asp-Ala-B5-Asp-Asp-Ala-Ala-3FF-Val-S8-Phe-Trp-Gln-NH2 (peptide)
peptide: Ac-[αAllylPro]DA[B5(4)]DDAA[Phe(3-F)]V[S8]FWQ-NH2
modifications: staple 1-4, 4-11; not fully specified; printed as Ac-PL3-Asp-Ala-B5-Asp-Asp-Ala-Ala-3FF-Val-S8-Phe-Trp-Gln-NH2
notes: It is the earlier-eluting isomer composition
For orientation: IC50 means the concentration at which inhibition is half-maximal. Take B1: the IC50 in assay [1] turned out to be 5000 nM.

B2: I-134 (peptide)
peptide: Ac-[αAllylPro]DA[B5(28)]DEAAFV[S8]FW[Aib]-NH2
modifications: staple 1-4, 4-11
notes: Stitched (two-staple) peptide composition
A word on the EC50: it is the concentration at which the effect is half-maximal. Take B2: the response in assay [2] was half-maximal at 2700 nM (EC50). Regarding Ac-[αAllylPro]DA[B5(4)]DDAAFV[S8][Phe(4-F)]WQ-NH2 (staple 1-4, 4-11, Stapled peptide) [I-261: Ac-PL3-Asp-Ala-B5-Asp-Asp-Ala-Ala-Phe-Val-S8-4FF-Trp-Gln-NH2], in assay [1], the IC50 came to 5000 nM.

B3: I-131 (peptide)
peptide: Ac-[αAllylPro]DA[B5(4)]DEAAFV[SeN″]FWQ-NH2
modifications: staple 1-4, 4-11
notes: Stitched (two-staple) peptide composition; same description as I-130, separate later-eluting HPLC peak (staple isomer)
Regarding B3, the EC50 in assay [3] was 400 nM; in assay [2] it was 2160 nM.

B4: I-54 (peptide)
peptide: Ac-[αAllylPro]DA[B5(21)]DDAAFV[SeN]FWQ-NH2
modifications: staple 1-4, 4-11
notes: Stapled (stitched) peptide; also called Ac-PL3-Asp-Ala-B5-Asp-Asp-Ala-Ala-Phe-Val-SeN-Phe-Trp-Gln-NH2
Consider B4, for which the EC50 in assay [4] was 3190 nM; in assay [5], 482 nM.

B5: I-217 (peptide)
peptide: Ac-[αAllylPro]DA[B5(4)]DEAAXV[S8]FWQ-NH2
modifications: staple 1-4, 4-11; not fully specified (residue 9); printed as Ac-PL3-Asp-Ala-B5-Asp-Glu-Ala-Ala-MeTyr-Val-S8-Phe-Trp-Gln-NH2
notes: Stapled peptide composition; also called Ac-PL3-Asp-Ala-B5-Asp-Glu-Ala-Ala-MeTyr-Val-S8-Phe-Trp-Gln-NH2
For the molecule B5, the values for the EC50 in assay [6] and in assay [7] were 90 nM and 1960 nM, respectively.
